Results taken from paper PMC3082896.

Test system: LdTOP1L/S large subunit (LdTOP1L);LdTOP1L/S small subunit (LdTOP1S) (Leishmania donovani;Leishmania donovani)
Assay: EMSA

GAAAAAAGACTTAGAAAAATTTTTA (double strand)
binding signal (% of input DNA bound): 79
